Data published in patent US20110318339A1 (FABRUS, published 2011).

Experiments:
[1] = target: T1, recombinant human DLL4 (Cat# 1506-D4/CF, R&D Systems) (human, UniProt Q9NR61 27-529); assay: ELISA, DLL4 coated, Fab 0.74 nM
T1 construct: Bought protein; also called hDLL4; rHuman DLL4
Procedure: (§1) The plate was blocked by adding 1% BSA in Tris-buffered Saline Tween (TBST) and incubating for 1 hour at room temperature followed by washing 2 times with 150 μl TBST. A Fab antibody was serially diluted in 1% BSA in PBS. A 50 μl aliquot of each serial dilution was added, in triplicate, to each well and the plate was incubated for 1 hour at room temperature followed by washing 2 times with TBST. 50 μl of either goat anti-human kappa HRP conjugated secondary antibody (Cat # A7164-1 mL, Sigma-Aldrich) or goat anti-human lambda HRP conjugated secondary antibody (Cat # L1645-1 ml, Sigma-Aldrich), diluted 1:1000 in 1% BSA in PBS, was added to each well and the plate was incubated for 30 minutes at room temperature followed by washing 3 times with 200 μl TBST. Finally, 50 μl TMB one-component reagent (Cat # TMBW-1000-01, BioFax) was added and allowed to develop for 2 minutes at room temperature. The reaction was immediately halted by the addition of 50 μl 0.5M H₂SO₄ and the absorbance at 450 nm was measured using an ELISA plate reader.

[2] = target: T1, recombinant human DLL4 (Cat# …); assay: ELISA, DLL4 coated, Fab 20 nM
Procedure: as §1

[3] = target: T1, recombinant human DLL4 (Cat# …); assay: ELISA, DLL4 coated, Fab 2.22 nM
Procedure: as §1

[4] = target: T1, recombinant human DLL4 (Cat# …); assay: ELISA, DLL4 coated, Fab 6.67 nM
Procedure: as §1

[5] = target: T1, recombinant human DLL4 (Cat# …); assay: SPR (ProteOn), hDLL4 amine-coupled on chip
Procedure: In this example, the binding affinities of selected anti-DLL4 Fabs to recombinant human DLL4 (hDLL4, Cat# 1506-D4/CF, R&D Systems) were analyzed using Surface Plasmon Resonance (SPR) (Biosensor Tools, Salt Lake City, Utah). The Fabs analyzed include germline-derived antibodies and germline-modified DLL4 antibodies. Recombinant hDLL4 was immobilized on a SPR chip using amine coupling at three different surface densities. The Fabs were serially diluted 3-fold, with an initial concentration of 1 μM. Binding studies were run on a ProteOn system using a GLM sensor chip in 10 mM HEPES, pH 7.4, 150 mM NaCl, 0.01% Tween-20, and 0.1 mg/ml BSA at 25° C. The response data from each surface was globally fit to determine the binding constants.

| Binder | ELISA absorbance at 450 nm [1] [A450] | ELISA absorbance at 450 nm [2] [A450] | ELISA absorbance at 450 nm [3] [A450] | ELISA absorbance at 450 nm [4] [A450] | Kd [5] [nM] | koff [5] [s⁻¹] | kon [5] [M⁻¹ s⁻¹] |
| --- | --- | --- | --- | --- | --- | --- | --- |
| Fab VH1-46_IGHD6-6*01_IGHJ1*01 S102A/S103P/S104F/H111F I51A/N52L/S54T/G56H & L6_IGKJ1*01 S28N/S30D/S31H (Fab, V domains shown, Fab made in E. coli: VH on CH1 with His6 and Flag tags (Plasmid A), VL on kappa CL (Plasmid C); also called H: APFF ALTH & L: NDH) VH: QVQLVQSGAEVKKPGASVKVSCKASGYTFTSYYMHWVRQAPGQGLEWMGIALPTGHSTSYAQKFQGRVTMTRDTSTSTVYMELSSLRSEDTAVYYCAREEYAPFSAEYFQFWGQGTLVTVSS VL: EIVLTQSPATLSLSPGERATLSCRASQNVDHYLAWYQQKPGQAPRLLIYDASNRATGIPARFSGSGSGTDFTLTISSLEPEDFAVYYCQQRSNWPPWTFGQGTKVEIKR | 0.024 | 0.391 | 0.069 | 0.232 | – | – | – |
| Fab VH1-46_IGHD6-6*01_IGHJ1*01 S102A/S103P/S104F/H111F I51A/N52L/S54T/G56H & L6_IGKJ1*01 S28N/S30D/S31H S52L/A55G (Fab, V domains shown, Fab made in E. coli: VH on CH1 with His6 and Flag tags (Plasmid A), VL on kappa CL (Plasmid C); also called H: APFF ALTH & L: NDH LG) VH: QVQLVQSGAEVKKPGASVKVSCKASGYTFTSYYMHWVRQAPGQGLEWMGIALPTGHSTSYAQKFQGRVTMTRDTSTSTVYMELSSLRSEDTAVYYCAREEYAPFSAEYFQFWGQGTLVTVSS VL: EIVLTQSPATLSLSPGERATLSCRASQNVDHYLAWYQQKPGQAPRLLIYDALNRGTGIPARFSGSGSGTDFTLTISSLEPEDFAVYYCQQRSNWPPWTFGQGTKVEIKR | 0.028 | 0.39 | 0.069 | 0.212 | – | – | – |
| Fab VH1-46_IGHD6-6*01_IGHJ1*01 S102A/S103P/S104F/H111F I51V/N52L/S54T/G56H & L6_IGKJ1*01 S28N/S30D/S31H S52L/A55G (Fab, V domains shown, Fab made in E. coli: VH on CH1 with His6 and Flag tags (Plasmid A), VL on kappa CL (Plasmid C); also called H: APFF VLTH & L: NDH LG) VH: QVQLVQSGAEVKKPGASVKVSCKASGYTFTSYYMHWVRQAPGQGLEWMGIVLPTGHSTSYAQKFQGRVTMTRDTSTSTVYMELSSLRSEDTAVYYCAREEYAPFSAEYFQFWGQGTLVTVSS VL: EIVLTQSPATLSLSPGERATLSCRASQNVDHYLAWYQQKPGQAPRLLIYDALNRGTGIPARFSGSGSGTDFTLTISSLEPEDFAVYYCQQRSNWPPWTFGQGTKVEIKR | 0.397 | 1.06 | 0.755 | 0.916 | – | – | – |
| Fab VH1-46_IGHD6-6*01_IGHJ1*01 S102A/S103P/S104F/H111F I51A/N52L/S54T/G56H & L6_IGKJ1*01 S28N/S30D/S31H S52L/A55S (Fab, V domains shown, Fab made in E. coli: VH on CH1 with His6 and Flag tags (Plasmid A), VL on kappa CL (Plasmid C); also called H: APFF ALTH & L: NDH LS) VH: QVQLVQSGAEVKKPGASVKVSCKASGYTFTSYYMHWVRQAPGQGLEWMGIALPTGHSTSYAQKFQGRVTMTRDTSTSTVYMELSSLRSEDTAVYYCAREEYAPFSAEYFQFWGQGTLVTVSS VL: EIVLTQSPATLSLSPGERATLSCRASQNVDHYLAWYQQKPGQAPRLLIYDALNRSTGIPARFSGSGSGTDFTLTISSLEPEDFAVYYCQQRSNWPPWTFGQGTKVEIKR | 0.046 | 0.458 | 0.04 | 0.282 | – | – | – |
| Fab VH1-46_IGHD6-6*01_IGHJ1*01 S102A/S103P/S104F/H111F N52L/S54T/G56H & L6_IGKJ1*01 S28N/S30D/S31H S52L/A55S (Fab, V domains shown, Fab made in E. coli: VH on CH1 with His6 and Flag tags (Plasmid A), VL on kappa CL (Plasmid C); also called H: APFF LTH & L: NDH LS) VH: QVQLVQSGAEVKKPGASVKVSCKASGYTFTSYYMHWVRQAPGQGLEWMGIILPTGHSTSYAQKFQGRVTMTRDTSTSTVYMELSSLRSEDTAVYYCAREEYAPFSAEYFQFWGQGTLVTVSS VL: EIVLTQSPATLSLSPGERATLSCRASQNVDHYLAWYQQKPGQAPRLLIYDALNRSTGIPARFSGSGSGTDFTLTISSLEPEDFAVYYCQQRSNWPPWTFGQGTKVEIKR | 0.398 | 1.05 | 0.557 | 0.916 | – | – | – |
| Fab VH1-46_IGHD6-6*01_IGHJ1*01 S102A/S103P/S104F/H111F I51V/N52L/S54T/G56H & L6_IGKJ1*01 S28N/S30D/S31H (Fab, V domains shown, Fab made in E. coli: VH on CH1 with His6 and Flag tags (Plasmid A), VL on kappa CL (Plasmid C); also called H: APFF VLTH & L: NDH) VH: QVQLVQSGAEVKKPGASVKVSCKASGYTFTSYYMHWVRQAPGQGLEWMGIVLPTGHSTSYAQKFQGRVTMTRDTSTSTVYMELSSLRSEDTAVYYCAREEYAPFSAEYFQFWGQGTLVTVSS VL: EIVLTQSPATLSLSPGERATLSCRASQNVDHYLAWYQQKPGQAPRLLIYDASNRATGIPARFSGSGSGTDFTLTISSLEPEDFAVYYCQQRSNWPPWTFGQGTKVEIKR | 0.288 | 0.979 | 0.608 | 0.776 | 2.7 | 0.00113 | 430000 |
| Fab VH1-46_IGHD6-6*01_IGHJ1*01 S102A/S103P/S104F/H111F N52L/S54T/G56H & L6_IGKJ1*01 S28N/S30D/S31H (Fab, V domains shown, Fab made in E. coli: VH on CH1 with His6 and Flag tags (Plasmid A), VL on kappa CL (Plasmid C); also called H: APFF LTH & L: NDH) VH: QVQLVQSGAEVKKPGASVKVSCKASGYTFTSYYMHWVRQAPGQGLEWMGIILPTGHSTSYAQKFQGRVTMTRDTSTSTVYMELSSLRSEDTAVYYCAREEYAPFSAEYFQFWGQGTLVTVSS VL: EIVLTQSPATLSLSPGERATLSCRASQNVDHYLAWYQQKPGQAPRLLIYDASNRATGIPARFSGSGSGTDFTLTISSLEPEDFAVYYCQQRSNWPPWTFGQGTKVEIKR | 0.27 | 0.863 | 0.463 | 0.739 | – | – | – |
| Fab VH1-46_IGHD6-6*01_IGHJ1*01 S102A/S103P/S104F/H111F N52L/S54T/G56H & L6_IGKJ1*01 S28N/S30D/S31H S52L/A55G (Fab, V domains shown, Fab made in E. coli: VH on CH1 with His6 and Flag tags (Plasmid A), VL on kappa CL (Plasmid C); also called H: APFF LTH & L: NDH LG) VH: QVQLVQSGAEVKKPGASVKVSCKASGYTFTSYYMHWVRQAPGQGLEWMGIILPTGHSTSYAQKFQGRVTMTRDTSTSTVYMELSSLRSEDTAVYYCAREEYAPFSAEYFQFWGQGTLVTVSS VL: EIVLTQSPATLSLSPGERATLSCRASQNVDHYLAWYQQKPGQAPRLLIYDALNRGTGIPARFSGSGSGTDFTLTISSLEPEDFAVYYCQQRSNWPPWTFGQGTKVEIKR | 0.368 | 1.01 | 0.594 | 0.88 | – | – | – |
| Fab VH5-51_IGHD5-18*01>3_IGHJ4*01 G100K/G104T & V3-4_IGLJ1*01 M94R/S96M (Fab, V domains shown, Fab made in E. coli: VH on CH1 with His6 and Flag tags (Plasmid A), VL on lambda CL (Plasmid E); also called H: KT & L: RM) VH: EVQLVQSGAEVKKPGESLKISCKGSGYSFTSYWIGWVRQMPGKGLEWMGIIYPGDSDTRYSPSFQGQVTISADKSISTAYLQWSSLKASDTAMYYCARRKYSYTYDYFDYWGQGTLVTVSS VL: QTVVTQEPSFSVSPGGTVTLTCGLSSGSVSTSYYPSWYQQTPGQAPRTLIYSTNTRSSGVPDRFSGSILGNKAALTITGAQADDESDYYCVLYRGMGISYVFGTGTKVTVL | 0 | 0.087 | 0.007 | 0.023 | – | – | – |
| Fab VH5-51_IGHD5-18*01>3_IGHJ4*01 G100K/G104T G24T/S28R/G35V & V3-4_IGLJ1*01 M94R/S96M (Fab, V domains shown, Fab made in E. coli: VH on CH1 with His6 and Flag tags (Plasmid A), VL on lambda CL (Plasmid E); also called H: KT TRV & L: RM; KT TRV-V3-4 RM) VH: EVQLVQSGAEVKKPGESLKISCKTSGYRFTSYWIVWVRQMPGKGLEWMGIIYPGDSDTRYSPSFQGQVTISADKSISTAYLQWSSLKASDTAMYYCARRKYSYTYDYFDYWGQGTLVTVSS VL: QTVVTQEPSFSVSPGGTVTLTCGLSSGSVSTSYYPSWYQQTPGQAPRTLIYSTNTRSSGVPDRFSGSILGNKAALTITGAQADDESDYYCVLYRGMGISYVFGTGTKVTVL | 0.006 | 0.122 | 0.028 | 0.062 | 40.3 | 0.101 | 2.53e+06 |
| Fab VH5-51_IGHD5-18*01>3_IGHJ4*01 G100K/G104T G24A/S28R/G35V & V3-4_IGLJ1*01 (Fab, V domains shown, Fab made in E. coli: VH on CH1 with His6 and Flag tags (Plasmid A), VL on lambda CL (Plasmid E); also called H: KT ARV & L: wt) VH: EVQLVQSGAEVKKPGESLKISCKASGYRFTSYWIVWVRQMPGKGLEWMGIIYPGDSDTRYSPSFQGQVTISADKSISTAYLQWSSLKASDTAMYYCARRKYSYTYDYFDYWGQGTLVTVSS VL: QTVVTQEPSFSVSPGGTVTLTCGLSSGSVSTSYYPSWYQQTPGQAPRTLIYSTNTRSSGVPDRFSGSILGNKAALTITGAQADDESDYYCVLYMGSGISYVFGTGTKVTVL | 0.008 | 0.054 | 0.002 | 0.025 | – | – | – |
| Fab VH5-51_IGHD5-18*01>3_IGHJ4*01 G100K/G104T G24L/S28R/G35V & V3-4_IGLJ1*01 (Fab, V domains shown, Fab made in E. coli: VH on CH1 with His6 and Flag tags (Plasmid A), VL on lambda CL (Plasmid E); also called H: KT LRV & L: wt) VH: EVQLVQSGAEVKKPGESLKISCKLSGYRFTSYWIVWVRQMPGKGLEWMGIIYPGDSDTRYSPSFQGQVTISADKSISTAYLQWSSLKASDTAMYYCARRKYSYTYDYFDYWGQGTLVTVSS VL: QTVVTQEPSFSVSPGGTVTLTCGLSSGSVSTSYYPSWYQQTPGQAPRTLIYSTNTRSSGVPDRFSGSILGNKAALTITGAQADDESDYYCVLYMGSGISYVFGTGTKVTVL | 0.006 | 0.027 | 0 | 0.005 | – | – | – |
